Data published in article PMC12155224, “Rare missense variants of the leukocyte common antigen related receptor (LAR) display reduced activity in transcellular adhesion and synapse formation” (Research Square, 2025).

T1: NGL-3 ECD (extracellular domain of Netrin-G ligand 3, Fc cleaved off) (UniProt Q9NT99 36-576)
T1 construct: after cleavage LEVLFQ should remain at the C-terminus (surmised); source: ExpiCHO-S, purified (Protein A, Fc cleaved off with 3C protease, SEC); not shown: Fc, C-terminal, cleaved
T1 sequence (looked up): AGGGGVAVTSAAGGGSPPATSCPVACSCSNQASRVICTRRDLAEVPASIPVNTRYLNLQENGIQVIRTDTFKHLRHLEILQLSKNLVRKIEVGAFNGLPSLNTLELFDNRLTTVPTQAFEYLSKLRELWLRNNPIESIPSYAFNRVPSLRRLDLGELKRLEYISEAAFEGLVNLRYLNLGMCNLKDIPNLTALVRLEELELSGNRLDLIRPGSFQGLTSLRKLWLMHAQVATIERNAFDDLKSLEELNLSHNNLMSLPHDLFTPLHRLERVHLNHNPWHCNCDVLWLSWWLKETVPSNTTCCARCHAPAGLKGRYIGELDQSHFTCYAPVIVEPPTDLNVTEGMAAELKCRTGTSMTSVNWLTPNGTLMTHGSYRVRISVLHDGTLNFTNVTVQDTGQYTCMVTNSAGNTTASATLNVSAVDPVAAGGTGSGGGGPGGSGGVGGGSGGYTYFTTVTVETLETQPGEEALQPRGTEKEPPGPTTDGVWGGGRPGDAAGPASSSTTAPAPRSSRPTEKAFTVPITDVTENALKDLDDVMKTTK

B1: LAR FN1–4 WT (recombinant fibronectin III domains 1–4 of human LAR) (domain or fragment)
chain: PKPPIDLVVTETTATSVTLTWDSGNSEPVTYYGIQYRAAGTEGPFQEVDGVATTRYSIGGLSPFSEYAFRVLAVNSIGRGPPSEAVRARTGEQAPSSPPRRVQARMLSASTMLVQWEPPEEPNGLVRGYRVYYTPDSRRPPNAWHKHNTDAGLLTTVGSLLPGITYSLRVLAFTAVGDGPPSPTIQVKTQQGVPAQPADFQAEVESDTRIQLSWLLPPQERIIMYELVYWAAEDEDQQHKVTFDPTSSYTLEDLKPDTLYRFQLAARSDMGVGVFTPTIEARTAQSTPSAPPQKVMCVSMGSTTVRVSWVPPPADSRNGVITQYSVAYEAVDGEDRGRHVVDGISREHSSWDLVGLEKWTEYRVWVRAHTDVGPGPESSPVLVRTDED
modifications: RED-tris-NTA 2nd generation dye on the His tag
notes: leukocyte common antigen related receptor (LAR, PTPRF), human, FN1–4 domains; TEV cleavage site between the His tag and the domains; also called WT LAR FN1–4; LAR FN1–4 domain; source: E. coli BL21(DE3), purified (HisTrap HP or Talon beads, SEC); not shown: His6, N-terminal, kept

Assays:
[1] = biological target: LAR V389M, full length (human) (UniProt P10586)
[2] = biological target: LAR P381L, full length (human) (UniProt P10586)
[3] = biological target: LAR P417L, full length (human) (UniProt P10586)
[4] = biological target: T1, NGL-3 ECD (extracellular domain of …); experiment: MST; His-tagged LAR FN1–4 labelled with RED-tris-NTA, 100 nM; NGL-3 in 1:1 dilution series; 25 mM HEPES pH 7.5, 150 mM NaCl, 0.005 % Tween20; 1 h at RT; Monolith NT.115, medium MST power; MST on time 2.5 s; 1:1 KD model; conditions: both partners purified

| Molecule | cell aggregation index: HEK293T cells with LAR variant + mCherry mixed with HEK293T cells with NGL-3 (NGL-3-CFP, whole on cells, not the Fc fusion) + GFP; decrease against WT LAR [1] [% decrease] | cell aggregation index: HEK293T cells with LAR variant + mCherry mixed with HEK293T cells with NGL-3 (NGL-3-CFP, whole on cells, not the Fc fusion) + GFP; decrease against WT LAR [2] [% decrease] | cell aggregation index: HEK293T cells with LAR variant + mCherry mixed with HEK293T cells with NGL-3 (NGL-3-CFP, whole on cells, not the Fc fusion) + GFP; decrease against WT LAR [3] [% decrease] | Kd [4] [µM] |
| --- | --- | --- | --- | --- |
| NGL-3-Fc (soluble fusion of the NGL-3 extracellular domain with Fc) (from UniProt Q9NT99 36-576) | > 50 | > 50 | > 50 | – |
| B1 | – | – | – | 3.68 |
